Consider 6 molecules from US20250136721A1 (GlaxoSmithKline, published 2025).

Where “and” joins values, the source holds several entries; their conditions need not be identical. Equal values may be shown once. Read-outs that look alike come from different tables or passages of the source.

For test [1], the target named is T1, Recombinant human TNFR1-Fc (human, UniProt P19438 30-211, limits assumed).
T1 construct: bought reagent; also called hTNFR1:Fc; not shown: Fc part; not described
T1 sequence (looked up): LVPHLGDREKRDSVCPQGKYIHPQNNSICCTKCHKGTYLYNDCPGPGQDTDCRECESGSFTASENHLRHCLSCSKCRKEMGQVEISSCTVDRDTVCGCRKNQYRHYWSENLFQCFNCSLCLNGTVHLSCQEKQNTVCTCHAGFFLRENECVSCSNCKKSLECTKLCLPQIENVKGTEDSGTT
In words: ELISA: dAb on coated recombinant human TNFR1-Fc.

Test [2] addresses pre-existing anti-VH ADA in human serum. Description: ADA confirmation assay (MSD): 10 ug/mL test material against labelled DOM1H-131-206; share of 10 ADA-positive sera with binding.
The target is the same in test [3]. Description: ADA confirmation assay (MSD): 10 ug/mL test material against labelled DOM1H-131-206, mean of 10 sera.
Test [4] has the same target. In words: ADA confirmation assay of Example 2 (MSD): test material against labelled DOM1H-131-206.
In test [5] the target is T1, Recombinant human TNFR1-Fc. Description: SPR (Biacore T100): TNFR1:Fc captured by anti-human IgG on a CM4 chip, dAb as analyte, 1:1 model.
Test [6] deals with T2, cynomolgus monkey TNFR1 (on monkey cells) (cynomolgus monkey, UniProt Q2PFV5 30-455).
T2 sequence: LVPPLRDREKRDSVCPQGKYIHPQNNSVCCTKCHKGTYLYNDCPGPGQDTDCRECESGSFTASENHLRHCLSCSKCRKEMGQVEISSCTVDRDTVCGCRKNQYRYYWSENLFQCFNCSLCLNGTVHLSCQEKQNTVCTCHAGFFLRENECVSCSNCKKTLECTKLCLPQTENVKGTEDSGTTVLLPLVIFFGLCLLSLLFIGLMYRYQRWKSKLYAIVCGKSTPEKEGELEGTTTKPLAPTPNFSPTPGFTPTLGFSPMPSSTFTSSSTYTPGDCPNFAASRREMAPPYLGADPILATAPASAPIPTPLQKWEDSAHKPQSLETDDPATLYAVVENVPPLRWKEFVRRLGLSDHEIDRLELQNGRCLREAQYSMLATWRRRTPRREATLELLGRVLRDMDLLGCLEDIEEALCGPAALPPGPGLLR
Description: cell-based or functional assay.

The target of test [7] is T3, human TNFR1 (on human cells) (human, UniProt P19438 30-455).
T3 sequence (looked up): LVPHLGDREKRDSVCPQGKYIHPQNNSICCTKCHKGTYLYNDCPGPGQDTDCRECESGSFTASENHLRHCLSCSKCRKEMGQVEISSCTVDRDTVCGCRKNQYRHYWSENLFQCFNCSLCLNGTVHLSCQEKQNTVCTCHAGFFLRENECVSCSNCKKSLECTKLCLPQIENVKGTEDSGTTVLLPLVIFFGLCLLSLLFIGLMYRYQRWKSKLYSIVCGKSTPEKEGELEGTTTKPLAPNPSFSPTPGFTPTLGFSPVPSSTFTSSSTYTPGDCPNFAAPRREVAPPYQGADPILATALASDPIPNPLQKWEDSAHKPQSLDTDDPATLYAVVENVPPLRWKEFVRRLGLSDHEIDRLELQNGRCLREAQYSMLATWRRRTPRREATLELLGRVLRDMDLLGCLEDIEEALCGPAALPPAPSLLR
Description: cell-based or functional assay.

Test [8] deals with pre-existing anti-VH ADA in human serum. Description: ADA confirmation assay (MSD): 10 ug/mL test material against labelled DOM1H-131-206, mean of 10 sera. This is another data set of the same source.
The target of another test is T4, cynomolgus monkey TNFR1 (cynomolgus monkey, UniProt Q2PFV5 30-211).
T4 sequence: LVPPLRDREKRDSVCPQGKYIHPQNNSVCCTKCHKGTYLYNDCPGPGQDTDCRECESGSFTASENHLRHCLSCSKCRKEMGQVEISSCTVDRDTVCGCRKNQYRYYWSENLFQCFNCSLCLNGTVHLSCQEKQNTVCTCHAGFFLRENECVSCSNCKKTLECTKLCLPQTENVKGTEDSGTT
In words: SPR (Biacore T100), same format with cynomolgus monkey TNFR1, dAb as analyte, 1:1 model.

The target of test [9] is pre-existing anti-VH ADA in human serum. Description: ADA confirmation assay (MSD): 10 ug/mL test material against labelled DOM1H-131-206; share of 10 ADA-positive sera with binding. The source holds these as a separate data set.
The target of test [10] is T1, Recombinant human TNFR1-Fc. In words: ELISA: dAb on coated recombinant human TNFR1-Fc, anti-Vh detection.

B1: DOM1H-131-206 C-terminal ASTKGP (other)
VH: EVQLLESGGGLVQPGGSLRLSCAASGFTFAHETMVWVRQAPGKGLEWVSHIPPDGQDPFYADSVKGRFTISRDNSKNTLYLQMNSLRAEDTAVYHCALLPKRGPWFDYWGQGTLVTVSSASTKGP
notes: VH dAb variant
Turning to B1, in [1], the “fold change of EC50 against the parental dAb DOM1H-131-206” value is around 5 fold. Also, the % subjects with ADA binding (10 subjects) (% of subjects) in test [2] worked out at 60. In test [3], this molecule displayed a Mean % inhibition of signal in confirmation assay of 42.6%.

B2: Clone VHH2(f) (VHH)
VHH: EVQLVESGGGLVQPGGSLRLSCAASGRTFSYNPMGWFRQAPGKGRELVAAISRTGGSTYYPDSVEGRFTISRDNAKRMVYLQMNSLRAEDTAVYYCAAAGVRAEDGRVRTLPSEYTFWGQGTQVTVSSAAAEVQLVESGGGLVQPGGSLRLSCAASGRTFSYNPMGWFRQAPGKGRELVAAISRTGGSTYYPDSVEGRFTISRDNAKRMVYLQMNSLRAEDTAVYYCAAAGVRAEDGRVRTLPSEYTFWGQGTQVTVSS
Molecule B2 registered a Mean % Inhibition in test [4] of 94.2%.

B3: DOM1H-131-206 with a C-terminal alanine extension (other)
VH: EVQLLESGGGLVQPGGSLRLSCAASGFTFAHETMVWVRQAPGKGLEWVSHIPPDGQDPFYADSVKGRFTISRDNSKNTLYLQMNSLRAEDTAVYHCALLPKRGPWFDYWGQGTLVTVSSA
notes: VH dAb variant
Consider B3, for which, in test [5], the Kd was 25.3 pM, the koff is 0.000229 s⁻¹ and the kon came to 9.02e+06 M⁻¹ s⁻¹. For the same molecule, in test [6], the “IC50, inhibition of LPS-induced IL-8, Cynomolgus monkey whole blood (n = 3)” value was 400 pM and the “IC50, inhibition of TNFα-induced IL-8, CYNOMK1 Cynomolgus monkey skin fibroblasts (n = 2)” value was 4700 pM. Also, in test [7], the “IC50, inhibition of TNFα-induced IL-8, A549 human lung epithelium (n = 2)” value was determined as 1000 pM; the “IC50, inhibition of TNFα-induced IL-8, Human whole blood (n = 3-5)” value amounted to 900 pM; the “IC50, inhibition of TNFα-induced IL-8, MRC5 human lung fibroblast (n = 3)” value turned out to be 3500 pM. Besides, the Mean % inhibition of signal in confirmation assay in test [3] stood at 15.7%. The same molecule returned a Mean % inhibition of signal in confirmation assay in test [8] of 1.12%. Besides, in the test with cynomolgus monkey TNFR1, binding was put at a Kd of 19.7 pM, the off-rate constant (koff) came out at 0.000189 s⁻¹ and the kon worked out at 9.6e+06 M⁻¹ s⁻¹.

B4: VHH2(f) + A (VHH)
VHH: EVQLVESGGGLVQPGGSLRLSCAASGRTFSYNPMGWFRQAPGKGRELVAAISRTGGSTYYPDSVEGRFTISRDNAKRMVYLQMNSLRAEDTAVYYCAAAGVRAEDGRVRTLPSEYTFWGQGTQVTVSSAAAEVQLVESGGGLVQPGGSLRLSCAASGRTFSYNPMGWFRQAPGKGRELVAAISRTGGSTYYPDSVEGRFTISRDNAKRMVYLQMNSLRAEDTAVYYCAAAGVRAEDGRVRTLPSEYTFWGQGTQVTVSSA
In test [4], B4 returned a Mean % Inhibition of 17.5%.

B5: DOM1H-131-206 (other)
VH: EVQLLESGGGLVQPGGSLRLSCAASGFTFAHETMVWVRQAPGKGLEWVSHIPPDGQDPFYADSVKGRFTISRDNSKNTLYLQMNSLRAEDTAVYHCALLPKRGPWFDYWGQGTLVTVSS
notes: human anti-TNFR1 VH domain antibody (dAb); biotinylated or Sulfo-Tag labelled where it is the assay reagent
Take B5: in test [5], the Kd came to 14.3 pM, the koff turned out to be 0.000142 s⁻¹ and the kon was 9.94e+06 M⁻¹ s⁻¹. Besides, the % subjects with ADA binding (10 subjects) (% of subjects) in [2] came out at 100. For the same molecule, in test [6], the “IC50, inhibition of LPS-induced IL-8, Cynomolgus monkey whole blood (n = 3)” value came out at 500 pM and the “IC50, inhibition of TNFα-induced IL-8, CYNOMK1 Cynomolgus monkey skin fibroblasts (n = 2)” value is 4800 pM. Also, in test [7], the “IC50, inhibition of TNFα-induced IL-8, A549 human lung epithelium (n = 2)” value was found to be 1000 pM; the “IC50, inhibition of TNFα-induced IL-8, Human whole blood (n = 3-5)” value was determined as 1600 pM; the “IC50, inhibition of TNFα-induced IL-8, MRC5 human lung fibroblast (n = 3)” value was found to be 4800 pM. The Mean % inhibition of signal in confirmation assay in test [3] was 96.1% and 99.5%. In the test with cynomolgus monkey TNFR1, this molecule yielded a Kd of 15 pM, a koff of 0.000151 s⁻¹ and a kon of 1.01e+07 M⁻¹ s⁻¹.

B6: DOM1H-131-206 A84T (other, name in Kabat numbering)
VH: EVQLLESGGGLVQPGGSLRLSCAASGFTFAHETMVWVRQAPGKGLEWVSHIPPDGQDPFYADSVKGRFTISRDNSKNTLYLQMNSLRTEDTAVYHCALLPKRGPWFDYWGQGTLVTVSS
notes: VH dAb variant
On to B6, for which the % subjects with ADA binding (10 subjects) (% of subjects) in test [9] was found to be 100. For the same molecule, the EC50 in test [10] came to 790 pM. This molecule showed a Mean % inhibition of signal in confirmation assay in test [8] of 91%.

The Kd is the constant that tells how readily two partners part at equilibrium. For orientation: koff means the first-order rate constant of dissociation. The term kon denotes the rate constant with which the complex forms. As a reminder, the EC50 is the concentration that produces a half-maximal response.
